The values that follow come from the supplement of paper PMC10567573.

± gives the standard deviation.

The data set is described as follows: protein stability index of a GFP-peptide fusion (GPS, HEK-293T) (PSI 1-6); higher = more stable.
The mark [1] stands for this setting: treatment: DMSO, c terminus: a fixed tail appended.
The mark [2] stands for this setting: treatment: MLN4924 1 uM, 8 h, c terminus: a fixed tail appended.
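Further: 24-mer peptide tiles fused after GFP, lentivirally expressed, FACS-sorted into six equal bins by GFP/DsRed ratio, decoded by Illumina sequencing, PSI is the read-weighted mean bin number.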

Take QNVVVKTLWKHQFAWPFYQPVDAI [BRD3]: the protein stability index by setting is: under setting [1], 2.31 ± 0.46; under setting [2], 2.29 ± 0.45.
With CEEKAKKNANRPLLDEIVPVYRRD [ACBD3], the protein stability index by setting is: under setting [1], 4.72 ± 0.18; under setting [2], 4.61 ± 0.55.
LLYSEVTASSLVKINLQGDIVDRG [ADD1]: the protein stability index by setting is: under setting [1], 2.85 ± 0.52; under setting [2], 2.42 ± 0.42.
Take ELSTLRNLFKQLPEPLLASSGHC [CEBPB]: the protein stability index (treatment: DMSO, c terminus: native) was 2.12 ± 0.44 and the protein stability index (treatment: MLN4924 1 uM, 8 h, c terminus: native) turned out to be 2.38 ± 0.14.
As to AALTNKHSQELTNEKEKALQAQVQ [SASS6], the protein stability index reads like this: under setting [1], 5.3 ± 0.086; under setting [2], 5.46 ± 0.19.
LNDISRKSEGLSGRVLRKLPFLAH [TRIP13]: the protein stability index came out at 2.11 ± 0.27 under setting [1] and 2.57 ± 0.55 under setting [2].
Turning to MWRDLTDEEKQEYLNEYEAEKIEY [SMARCE1], the protein stability index runs as follows: under setting [1], 4.26 ± 0.4; under setting [2], 4.35 ± 0.21.
The matching figures for RMAAPRAEALFDFTGNSKLELNFK [NCF4]: 3.33 ± 0.2 and 3.46 ± 0.28.
On to KFYAVLKGTILYLQKDEYRPDKAL [PSD2], for which the protein stability index is, setting by setting: under setting [1], 2.83 ± 0.53; under setting [2], 2.58 ± 0.44.
Turning to SRVKCDQYWPSRGTETHGLVQVTL [PTPRD], the protein stability index was 2.42 ± 0.39 under setting [1] and 2.05 ± 0.4 under setting [2].
With GKIDFPRHLDFHVKDLIKKLLVVD [PRKX], the protein stability index reads like this: under setting [1], 2.44 ± 0.48; under setting [2], 1.97 ± 0.078.
As to HAPGVPRILVGNRLHLAFKRQVPT [RAB40C], the protein stability index is, setting by setting: under setting [1], 2.69 ± 0.17; under setting [2], 2.72 ± 0.13.
For MRPPMPPHGQYGGHHQGMPGYLPG [ZNF207] the same measures were 3.23 ± 0.3 and 3.29 ± 0.18.
On to LRDTYKLWVPQPPPRTIKRTRRRL [PWWP2B], for which the protein stability index by setting is: under setting [1], 3.46 ± 0.19; under setting [2], 3.64 ± 0.21.
The matching figures for VQRHLYLQDVIMQVADVPEKPRVP [ZNF511]: 2.8 ± 0.2 and 2.9 ± 0.29.
In the case of IVETLTVGCKGSKAGIEQEGYWLP [ZMYND11], the protein stability index is, setting by setting: under setting [1], 2.21 ± 0.18; under setting [2], 2.26 ± 0.14.
On to HQDVPSQDDSKPTQRQFTILNFND [AASDHPPT], for which the protein stability index under setting [1] was 4.59 ± 0.27 and the protein stability index under setting [2] turned out to be 4.76 ± 0.32.
Regarding RTHSVIKEETNHSEMAEDLCKIGS [IKZF1], the protein stability index is, setting by setting: under setting [1], 4.9 ± 0.25; under setting [2], 4.85 ± 0.46.
The matching figures for TSSSLGDKSEYLEMEEGVKESLCA [KCNA4]: 5.1 ± 0.14 and 4.77 ± 0.41.
The matching figures for KDGKNWNSNQATDIMETSGWKSMI [SPOPL]: 3.38 ± 0.32 and 3.54 ± 0.4.
Take FALQGLPLNCAPCPRRSEPVVQCQ [IRX6]: the protein stability index is, setting by setting: under setting [1], 2.7 ± 0.16; under setting [2], 2.79 ± 0.28.
As for MPSTPGFVGYNPYSHLAYNNYRLG [SMARCE1], the protein stability index was determined as 2.27 ± 0.099 under setting [1] and 2.42 ± 0.23 under setting [2].
On to LPSLSCRTSCSSRPCVPPSCHGYT [KRT33B], for which the protein stability index by setting is: under setting [1], 2.1 ± 0.11; under setting [2], 2.09 ± 0.36.
Consider VFCDMETDGGGWLVFQRRMDGQTD [TNXB], for which the protein stability index by setting is: under setting [1], 2.9 ± 0.27; under setting [2], 2.98 ± 0.096.
As for SDGWWRGSYNGQIGWFPSNYVLEE [NCK2], the protein stability index runs as follows: under setting [1], 2.89 ± 0.35; under setting [2], 2.73 ± 0.12.
The matching figures for LYTGELDENERDLMHIAHIAELLE [RHOBTB2]: 2.69 ± 0.33 and 3.09 ± 0.34.
APADPTAREGLAAPPRRLRSRKVS [FCHO1]: the protein stability index under setting [1] turned out to be 5.12 ± 0.16 and the protein stability index under setting [2] came to 5.304 ± 0.013.
As for TYLENKGHRYPCFFNTLHVGGTIR [POP5], the protein stability index stood at 2.23 ± 0.14 under setting [1] and 2.19 ± 0.052 under setting [2].
For SKEKDTQNQNITLDCEGTTNKMKS [KMT2E] the same measures were 5.29 ± 0.058 and 5.28 ± 0.45.
